Measurements taken from article PMC7043357.

Target: T1, Rop (UniProt P03051 1-63)
T1 sequence: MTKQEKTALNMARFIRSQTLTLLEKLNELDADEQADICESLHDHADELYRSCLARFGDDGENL
Assay: EMSA

B1: RNA1-U6/RNA2-WT kissing dimer (structured_RNA)
RNA 1: GGCAGCUUUUUUUUGGUAGUUUUUUGCUGCC
RNA 2: GCACCGCUACCAACGGUGC
binding result: binds
